The chains are these.
T1: HCV Core1-169 (HCV-1, UniProt P26664 1-169)
T1 construct: also called recombinant HCV core antigen
T1 sequence: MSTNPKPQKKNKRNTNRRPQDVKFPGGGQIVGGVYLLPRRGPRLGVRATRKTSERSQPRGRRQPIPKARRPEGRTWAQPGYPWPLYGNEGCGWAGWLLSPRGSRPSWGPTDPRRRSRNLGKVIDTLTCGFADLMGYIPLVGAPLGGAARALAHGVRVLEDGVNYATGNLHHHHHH

T2: HCV Core1-169 (hepatitis C virus (HCV-1), UniProt P26664 1-169)
T2 sequence: T1 sequence

B1: HCV 208A-442 (antibody, V domains shown)
VH: DVQLQESGPGLVNPSQSLSLTCSVTGYSITSGYYWIWIRQFPGNKLEWMGYIKYDGGNNYSPSLKNRISIARDTSKNQFFLKLNSVTIEDTATYYCTRGSDSFDYWGQGTTLTVSS
VL: DIVLTQSPASLAVSLGQRAIISCKASQSVSFAGTNLMHWYQQKPGQQPKLLIYRASNLETGVPTRFSGSGSRTDFTLNIHPVEEDDAATYYCQQSREYYTFGGGTKLEIKR
B2: HCV 208A-638 (antibody, V domains shown)
VH: QGQLQQPGAEFVKPGASLKLSCRASGYTFTSYWIHWVKQRPGQGLEWIGEVDPSDSYINQNEKFRGKATLTVDKSSSTAYMQLGSLTSEDSAVYYCARHYYGVLDSWGQGTALTVSS
VL: QIVLTQSPTIMSASLGERVTMTCTASSSVSSSYLHWFQQKPGSSPKLWIYSTSNLASGVPPRFSGSGSGTSYSLSISSVEAEDVATYYCLQFHRSPWTFGGGAKLEIKR
B3: HCV 208A-557 (antibody, V domains shown)
VH: QGQMQQSGAELVKPGASVKLSCKTSGFTFSSSYISWLKQKPGQSLEWIAWIYAGTGNTNYNQKFTDKAQLTVDTSSSTAYMQLSSLTTEDSAIYYCAISGTGFTYWGQGTLVTVSA
VL: DIALTQSPASLAVSLGQRATISCRASQSVSTSRYSYMHWYQQKPGQPPELLIKYASNLESGVPARFSGSGSGTDFTLNIHPVGEEDTATYYCQHSWDFPFTFGSGTKLEIKR
B4: HCV 208B-560 (antibody, V domains shown)
VH: EVQLQQSGPELEKPGASVKISCKTSGYTFTEYAMHWVKQSHGMSLEWIGGINPSNGNAIYNQIFKDKATLTVDRSSSTAYMGLRSLTFGDSGVYFCVRRQLDFFDYWGQGASLTVSS
VL: B3 VL with A3V, L4V, M37L, E49K, D97E
B5: HCV 208A-134 (antibody, V domains shown)
VH: B3 VH with V12A
VL: EVLMTQSPLSLPVSLGDQASISCRSSQSLEHTNGNTYLEWFLQRPGQPPKLLIYKVSSRFSGVPDRFSGSGSGTDFTLKISRVEAEDLGVYYCFQGSHVPFTFGSGTKLAIKR
B6: HCV 208A-920 (antibody, V domains shown)
VH: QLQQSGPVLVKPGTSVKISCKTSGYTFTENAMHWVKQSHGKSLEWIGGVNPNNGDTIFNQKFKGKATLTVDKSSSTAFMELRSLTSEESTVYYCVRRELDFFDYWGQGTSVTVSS
VL: B3 VL with A3V, E49K, G83A, T89A, D97E
B7: HCV 208A-222 (antibody, V domains shown)
VH: B4 VH with K19R, M43K, S54N, F103Y
VL: B3 VL with A3V, L4V, M37L, E49K, D97E
B8: HCV 208A-692 (antibody, V domains shown)
VH: B3 VH with V12A, Y52F
VL: B5 VL with T32S
B9: HCV 208A-605 (antibody, V domains shown)
VH: B4 VH with M34I
VL: B3 VL with A3V, L4V, M37L, E49K, D97E
B10: HCV 208A-110 (antibody, V domains shown)
VH: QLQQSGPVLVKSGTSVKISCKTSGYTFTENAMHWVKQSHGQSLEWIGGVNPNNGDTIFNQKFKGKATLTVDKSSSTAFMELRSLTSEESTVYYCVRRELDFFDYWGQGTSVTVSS
VL: B3 VL with A3V, E49K, G83A, T89A, D97E
B11: HCV 208B-189 (antibody, V domains shown)
VH: QVHLQQSGAELAKPGASVQMSCKASGYTFTANKMHWARQRPRQGLEWIGYIDPASGYTEYNQKIKDRATLTADKSSSTAYMQLSSLTSEDSAVYYCTNFAYWGQGTLVTVST
VL: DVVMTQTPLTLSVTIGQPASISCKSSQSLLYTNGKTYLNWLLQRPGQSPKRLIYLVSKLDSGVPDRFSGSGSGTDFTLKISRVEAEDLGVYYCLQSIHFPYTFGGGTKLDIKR
B12: HCV 208B-612 (antibody, V domains shown)
VH: EVQLQQSGPELVKPGASVKMSCKASGYRFTSYVMHWVRQKPGQGLEWIGYIDPHNDDTKYSEKFRGKATLTSDKSSTTAYMELSSLTSEDSAVYYCVRYSYDRDYSPMDYWGQGTSVTVSS
VL: QIVLTQSPTLMSASPGEKVTMTCSASSTVTYIYWYQQKPGSSPRLWMYDTFNLVSGVPARFSGSRSGTSYFLTISSMEGEDAATYYCQQYSDSPYTFGGGTKLEIKR
B13: HCV 208B-672 (antibody, V domains shown)
VH: EVKLVESGGSLVQPGGSLKLSCAASGFNFNTYAMSWVRQTPEKRLEWVAYISNGGGNTYYVDTVKGRFTISRDNAKNTLYLRMSSLKSEDTAMYYCARHGLYWGYSMDYWGQGTSVTVSS
VL: DIQMTQSPSSLSASLGERVSLTCRASQDIGGSINWLQQEPDGTIKRLIYATSSLDSGVPKRFSGSRSGSDYSLTISSLESEDFVDYYCLQYASSPPTFGGGTKLEIKR
B14: HCV 208B-1024 (antibody, V domains shown)
VH: EVQLVESGGDLVKPGGSLKLSCAASGFTFSNYGMSWVRQTPDKRLEWVATISSGGSYSYYPDSVKGRFTISRDNAKNILYLQMSSLKSEDTAMYYCASLYYGYGDYWGQGTAFTVSS
VL: DVLMTQTPLSLPVSLGDQASISCRSSQSIVHSNGNTYLEWYLQKLGQSPKLLIYRVSNRFSGVPDRFSGSGSGTDFTLKISRVEAEDLGVYYCFQGSHVPWTFGGGTKLEIKR
B15: HCV 208B-1096 (antibody, V domains shown)
VH: QVQLQQSGAGLAKPGASVKMSCKASGYTFTANKMHWAKQRPGQGLEWIGYIDPSSGYTEYNHKIQYKATLTADTSSSTAYMQLSTLTFEDSAVYYCTNFAYWGQGTLVTVSA
VL: DIVMTQTPLTLSVTIGQPASISCKSSQSLLFTNGKTYLNWFLQRPGQSPKRLIYLLSKLDSGVPDRFSGSGSGTDFTLKISRVEAEDLGVYYCLQSTYFPLTFGAGTKLELKR
B16: HCV 208B-395 (antibody, V domains shown)
VH: B15 VH with A37T, E59Q, Y66D, T85S
VL: DIVLTQSPATLSVTPGDRVSLSCRASQRIYNYLHWYQQKSHESPRLLIKYASQSISGIPSRFSGSGSGTDFILTINSVETEDFGMYFCQQSNSWPLTFGAGTKLELRR
B17: HCV 208B-547 (antibody, V domains shown)
VH: B11 VH with H3Q, Q19K, A31S, R38K, R42G, A54S, R67K, T112A
VL: EVVLTQSPAITAASLGQKVTITCRASSSVSYMHWYRQKSGTSPQPWIYEISTLASGVPTRFRASGSGTSYSLTISSMEAEDAAIYYCQQWNYPLTFGAGTKLELKR
B18: HCV 208B-589 (antibody, V domains shown)
VH: B15 VH with Y66D, T85S
VL: B15 VL

Where a chain is given by its changes, count along the chain named. Some results are limits rather than exact numbers.

The target of the first test is T1, HCV Core1-169. Briefly: EIA, core1-169 coated on plate. Note: test concentration or dose not given here.
B1: the “OD (A492)” value was found to be 1.61 OD.

For B2, the “OD (A492)” value was found to be 1.07 OD.

On to B3, for which the “OD (A492)” value worked out at 1.4 OD.

For the molecule B4, the “OD (A492)” value amounted to 1.07 OD.

As for B5, the “OD (A492)” value turned out to be 0.1 OD.

Take B6: the “OD (A492)” value amounted to 1.14 OD.

For B7, the “OD (A492)” value is 1.06 OD.

Take B8: the “OD (A492)” value was 0.07 OD.

As for B9, the “OD (A492)” value came to 0.55 OD.

For the molecule B10, the “OD (A492)” value was found to be 1.6 OD.

The target of the next test is T2, HCV Core1-169. Briefly: SPR sandwich, capture mAb C11-3.
B11 registered an expected percent binding of 2.3%.

For the molecule B12, the expected percent binding was determined as 3.8%.

For the molecule B13, the expected percent binding came out at 2.6%.

B14: the expected percent binding was 10.9%.

B15 came in with an expected percent binding of 15.1%.

B16 showed an expected percent binding of 7.6%.

In turn, B17 had an expected percent binding of 7.2%.

In turn, B18 displayed an expected percent binding of 9.4%.

The target of another test is T2, HCV Core1-169. The experiment in a line: SPR sandwich, capture mAb C11-7.
As for B11, the expected percent binding is 2.9%.

B12: the expected percent binding was 4.4%.

B13 had an expected percent binding of 2.8%.

B14 showed an expected percent binding of 14.3%.

Molecule B15 registered an expected percent binding of 16.9%.

In turn, B16 displayed an expected percent binding of 9.4%.

Take B17: the expected percent binding was found to be 8.3%.

Turning to B18, the expected percent binding worked out at 11.7%.

The target of a further test is T2, HCV Core1-169. The experiment in a line: SPR sandwich, capture mAb C11-9.
In the case of B11, the expected percent binding is ≤ 1%.

On to B12, for which the expected percent binding is ≤ 1%.

B13: the expected percent binding is ≤ 1%.

Take B14: the expected percent binding is 7.1%.

Consider B15, for which the expected percent binding turned out to be 11.4%.

B16 showed an expected percent binding of 5.2%.

In turn, B17 had an expected percent binding of 4.9%.

In the case of B18, the expected percent binding is 6.7%.

A further test concerns the target T2, HCV Core1-169. Briefly: SPR sandwich, capture mAb C11-14.
In turn, B11 gave an expected percent binding of 2.7%.

The molecule B12 came in with an expected percent binding of 3.1%.

The molecule B13 returned an expected percent binding of 2.7%.

In turn, B14 showed an expected percent binding of 12.2%.

B15: the expected percent binding stood at 16.3%.

With B16, the expected percent binding worked out at 7.8%.

B17: the expected percent binding was 8.2%.

Consider B18, for which the expected percent binding was found to be 9.9%.

In the next test the target is T3, HCV Core 134-171-TT Peptide (hepatitis C virus (HCV-1 numbering) …).
T3 construct: also called ALRZ-9 peptide
The experiment in a line: SPR, captured mAb, peptide analyte.
In the case of B11, the equilibrium dissociation constant (Kd) was 170 pM, the koff came to 0.00015 s⁻¹ and the kon worked out at 880000 M⁻¹ s⁻¹.

Consider B12, for which the Kd is 350 pM, the koff was 6.5e-05 s⁻¹ and the kon amounted to 180000 M⁻¹ s⁻¹.

Take B13: binding was put at a Kd of 160 pM, the koff came to 0.00034 s⁻¹ and the kon is 2.2e+06 M⁻¹ s⁻¹.

Consider B14, for which the dissociation constant Kd amounted to 15000 pM, the off-rate (koff) turned out to be 0.014 s⁻¹ and the on-rate (kon) stood at 1e+06 M⁻¹ s⁻¹.

Molecule B15 yielded a Kd of 460 pM, a koff of 0.0006 s⁻¹ and a kon of 1.3e+06 M⁻¹ s⁻¹.

Regarding B16, the Kd was determined as 360 pM, the koff is 0.00047 s⁻¹ and the on-rate constant (kon) was 1.3e+06 M⁻¹ s⁻¹.

Molecule B17 had a dissociation constant (Kd) of 3200 pM, a koff of 0.0049 s⁻¹ and a kon of 1.6e+06 M⁻¹ s⁻¹.

Turning to B18, binding was characterised by a dissociation constant (Kd) of 630 pM, the koff came to 0.00061 s⁻¹ and the kon is 960000 M⁻¹ s⁻¹.

In the next test the target is T1, HCV Core1-169. Briefly: EIA, core1-169 captured by mAb 14-153-229. Note: test concentration or dose not given here.
For B1, the “OD (A492)” value worked out at 0.36 OD.

On to B2, for which the “OD (A492)” value was found to be 2.24 OD.

In the case of B3, the “OD (A492)” value was found to be 2.39 OD.

On to B4, for which the “OD (A492)” value was 1.3 OD.

For B5, the “OD (A492)” value stood at 0.13 OD.

As for B6, the “OD (A492)” value worked out at 1.82 OD.

As to B7, the “OD (A492)” value is 2.07 OD.

Take B8: the “OD (A492)” value was 0.57 OD.

Regarding B9, the “OD (A492)” value stood at 2.21 OD.

With B10, the “OD (A492)” value stood at 1.87 OD.
